Experimental data taken from patent US20250154198A1, “PEPTIDE INHIBITORS OF INTERLEUKIN-23 RECEPTOR” (Zealand Pharma A/S, priority 2021, published 2025).
*1 amine or outer side, *2 acyl side, *3 side chain or, on linkers, in order; H or OH if unused. Bridges are numbered along the chain shown (N, C = ends). Primed or numbered codes have the meaning given here. Where no end group is shown, it is not given here. [ ]: non-standard residue; d: D form. 4‑Aminomethyl‑phenylacetyl = 4-aminomethyl-phenylacetyl unit, its amine closes the lactam, O=C(Cc1ccc(CN[*:1])cc1)[*:2]; Q(pyrrolidin)″ = (2S)-2-amino-5-oxo-5-pyrrolidin-1-yl-pentanoic acid, O=C(CC[C@H](N[*:1])C(=O)[*:2])N1CCCC1; 1,3‑dibromopropan‑2‑one(3) = linker giving 1,3-dithio-propan-2-one bridge -SCH2C(=O)CH2S- between Cys; 4‑Aminomethyl‑phenylacetyl″ = N-terminal cap residue, O=C(Cc1ccc(CN[*:1])cc1)[*:2]; Ala(quinolin-3-yl) = N[C@@H](Cc1cnc2ccccc2c1)C(=O)O; Trp(4-F) = N[C@@H](Cc1c[nH]c2cccc(F)c12)C(=O)O; Trp(7-F) = N[C@@H](Cc1c[nH]c2c(F)cccc12)C(=O)O; 2Nal = N[C@@H](Cc1ccc2ccccc2c1)C(=O)O; AEF = NCCOc1ccc(C[C@H](N)C(=O)O)cc1; 3Pal = N[C@@H](Cc1cccnc1)C(=O)O; αMeL = CC(C)C[C@](C)(N)C(=O)O; αMeV = CC(C)[C@](C)(N)C(=O)O; 3Amb = NCc1cccc(C(=O)O)c1; Orn = NCCC[C@H](N)C(=O)O; Dab = NCC[C@H](N)C(=O)O

T1: human IL-23R endogenously expressed on DB cells (CRL-2289) (human, UniProt Q5VWK5 24-629)
T1 sequence (looked up): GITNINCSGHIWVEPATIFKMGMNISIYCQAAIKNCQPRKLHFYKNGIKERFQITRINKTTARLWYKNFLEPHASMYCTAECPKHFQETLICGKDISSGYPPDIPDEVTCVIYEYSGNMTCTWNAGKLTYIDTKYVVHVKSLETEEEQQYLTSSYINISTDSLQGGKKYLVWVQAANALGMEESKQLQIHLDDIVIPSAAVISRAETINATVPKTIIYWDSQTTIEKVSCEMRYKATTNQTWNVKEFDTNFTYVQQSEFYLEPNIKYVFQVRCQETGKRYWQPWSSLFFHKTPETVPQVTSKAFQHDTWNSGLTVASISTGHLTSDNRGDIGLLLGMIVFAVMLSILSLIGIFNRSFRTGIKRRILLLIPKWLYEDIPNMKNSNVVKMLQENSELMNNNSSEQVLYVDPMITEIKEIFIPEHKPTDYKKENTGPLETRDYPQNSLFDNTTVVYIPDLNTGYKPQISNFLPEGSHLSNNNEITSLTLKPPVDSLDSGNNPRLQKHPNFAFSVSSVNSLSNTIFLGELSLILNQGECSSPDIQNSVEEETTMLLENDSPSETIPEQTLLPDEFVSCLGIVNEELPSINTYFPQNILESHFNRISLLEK


The binders below were run against T1, human IL-23R endogenously expressed on … (assay: cell-based or functional assay).

Binder	IC50 (pSTAT3)
[4‑Aminomethyl‑phenylacetyl″]S[Dab]WQE[AEF][2Nal][αMeL]E[Dab][3Pal]-NH2 (lactam N-10, 3-6; SMILES CC(C)C[C@]1(C)NC(=O)[C@H](Cc2ccc3ccccc3c2)NC(=O)[C@H](Cc2ccc(OCCN)cc2)NC(=O)[C@@H]2CCC(=O)NCC[C@H](NC(=O)[C@H](CO)NC(=O)Cc3ccc(cc3)CNC(=O)CC[C@@H](C(=O)N[C@@H](CCN)C(=O)N[C@@H](Cc3cccnc3)C(N)=O)NC1=O)C(=O)N[C@@H](Cc1c[nH]c3ccccc13)C(=O)N[C@@H](CCC(N)=O)C(=O)N2) [Compound 123]	0.0253 nM
[4‑Aminomethyl‑phenylacetyl]SE[Trp(4-F)]Q[Dab][AEF][2Nal][αMeL]E[Dab]-NH2 (lactam N-10, 3-6; SMILES CC(C)C[C@]1(C)NC(=O)[C@H](Cc2ccc3ccccc3c2)NC(=O)[C@H](Cc2ccc(OCCN)cc2)NC(=O)[C@@H]2CCNC(=O)CC[C@H](NC(=O)[C@H](CO)NC(=O)Cc3ccc(cc3)CNC(=O)CC[C@@H](C(=O)N[C@@H](CCN)C(N)=O)NC1=O)C(=O)N[C@@H](Cc1c[nH]c3cccc(F)c13)C(=O)N[C@@H](CCC(N)=O)C(=O)N2) [Compound 138]	39.4 nM
[4‑Aminomethyl‑phenylacetyl]VEWQ[Dab][AEF][2Nal][αMeL]E[Dab]-NH2 (lactam N-10, 3-6; SMILES CC(C)C[C@]1(C)NC(=O)[C@H](Cc2ccc3ccccc3c2)NC(=O)[C@H](Cc2ccc(OCCN)cc2)NC(=O)[C@@H]2CCNC(=O)CC[C@H](NC(=O)[C@H](C(C)C)NC(=O)Cc3ccc(cc3)CNC(=O)CC[C@@H](C(=O)N[C@@H](CCN)C(N)=O)NC1=O)C(=O)N[C@@H](Cc1c[nH]c3ccccc13)C(=O)N[C@@H](CCC(N)=O)C(=O)N2) [Compound 126]	28 nM
[4‑Aminomethyl‑phenylacetyl]SEWQ[Orn][AEF][2Nal][αMeL]E[Dab][3Pal]-NH2 (lactam N-10, 3-6; SMILES CC(C)C[C@]1(C)NC(=O)[C@H](Cc2ccc3ccccc3c2)NC(=O)[C@H](Cc2ccc(OCCN)cc2)NC(=O)[C@@H]2CCCNC(=O)CC[C@H](NC(=O)[C@H](CO)NC(=O)Cc3ccc(cc3)CNC(=O)CC[C@@H](C(=O)N[C@@H](CCN)C(=O)N[C@@H](Cc3cccnc3)C(N)=O)NC1=O)C(=O)N[C@@H](Cc1c[nH]c3ccccc13)C(=O)N[C@@H](CCC(N)=O)C(=O)N2) [Compound 124]	0.117 nM
DESCWQCWWLXR (HELM PEPTIDE1{D.E.S.C.W.Q.C.W.W.L.[Dab].R.[am]}|CHEM1{[O=C(C[*:1])C[*:2]]}$PEPTIDE1,PEPTIDE1,2:R3-11:R3|PEPTIDE1,CHEM1,4:R3-1:R1|PEPTIDE1,CHEM1,7:R3-1:R2$$$V2.0; SMILES CC(C)C[C@@H]1NC(=O)[C@H](Cc2c[nH]c3ccccc23)NC(=O)[C@H](Cc2c[nH]c3ccccc23)NC(=O)[C@@H]2CSCC(=O)CSC[C@H](NC(=O)[C@H](CO)NC(=O)[C@@H](NC(=O)[C@@H](N)CC(=O)O)CCC(=O)NCC[C@@H](C(=O)N[C@@H](CCCNC(=N)N)C(N)=O)NC1=O)C(=O)N[C@@H](Cc1c[nH]c3ccccc13)C(=O)N[C@@H](CCC(N)=O)C(=O)N2) [Compound 9]	> 1 µM
[4‑Aminomethyl‑phenylacetyl]SEWQ[Dab][AEF][2Nal][αMeV]E[Dab]-NH2 (lactam N-10, 3-6; SMILES CC(C)[C@]1(C)NC(=O)[C@H](Cc2ccc3ccccc3c2)NC(=O)[C@H](Cc2ccc(OCCN)cc2)NC(=O)[C@@H]2CCNC(=O)CC[C@H](NC(=O)[C@H](CO)NC(=O)Cc3ccc(cc3)CNC(=O)CC[C@@H](C(=O)N[C@@H](CCN)C(N)=O)NC1=O)C(=O)N[C@@H](Cc1c[nH]c3ccccc13)C(=O)N[C@@H](CCC(N)=O)C(=O)N2) [Compound 136]	8.8 nM

Continued, values first:

IC50 (pSTAT3)	Binder
0.0868 nM	[3Amb]SCWQC[AEF][2Nal][αMeL]E[Dab][3Pal]-NH2 (lactam (positions not given here); linker 3-6 via 1,3‑dibromopropan‑2‑one(3); not fully specified (bridges); printed as [(3-Aminomethyl)benzoyl](1c)*SC(2a)WQC(2a)[Y(2-aminoethoxy)][2-Nal][2-Me-Leu]E(1c)[Dab][3-(3-Pyridyl)-Ala]-[NH2]) [Compound 148]
41.5 nM	[4‑Aminomethyl‑phenylacetyl]SEW[Q(pyrrolidin)″][Dab][AEF][2Nal][αMeL]E[Dab]-NH2 (lactam N-10, 3-6; SMILES CC(C)C[C@]1(C)NC(=O)[C@H](Cc2ccc3ccccc3c2)NC(=O)[C@H](Cc2ccc(OCCN)cc2)NC(=O)[C@@H]2CCNC(=O)CC[C@H](NC(=O)[C@H](CO)NC(=O)Cc3ccc(cc3)CNC(=O)CC[C@@H](C(=O)N[C@@H](CCN)C(N)=O)NC1=O)C(=O)N[C@@H](Cc1c[nH]c3ccccc13)C(=O)N[C@@H](CCC(=O)N1CCCC1)C(=O)N2) [Compound 146]
0.0858 nM	[4‑Aminomethyl‑phenylacetyl″]SCWQC[AEF][2Nal][αMeL]ER[3Pal]-NH2 (lactam N-10; linker 3-6 via 1,3‑dibromopropan‑2‑one(3)) [Compound 147]
4.82 nM	[3Amb]SCWQC[AEF][2Nal][αMeL]ER[Ala(quinolin-3-yl)]-NH2 (lactam (positions not given here); linker 3-6 via 1,3‑dibromopropan‑2‑one(3); not fully specified (bridges); printed as [(3-Aminomethyl)benzoyl](1c)*SC(2a)WQC(2a)][Y(2-aminoethoxy)][2-Nal][2-Me-Leu]E(1c)R[3-(3-Quinolinyl)-Ala]-[NH2]) [Compound 149]
30.2 nM	[4‑Aminomethyl‑phenylacetyl]SE[Trp(7-F)]Q[Dab][AEF][2Nal][αMeL]E[Dab]-NH2 (lactam N-10, 3-6; SMILES CC(C)C[C@]1(C)NC(=O)[C@H](Cc2ccc3ccccc3c2)NC(=O)[C@H](Cc2ccc(OCCN)cc2)NC(=O)[C@@H]2CCNC(=O)CC[C@H](NC(=O)[C@H](CO)NC(=O)Cc3ccc(cc3)CNC(=O)CC[C@@H](C(=O)N[C@@H](CCN)C(N)=O)NC1=O)C(=O)N[C@@H](Cc1c[nH]c3c(F)cccc13)C(=O)N[C@@H](CCC(N)=O)C(=O)N2) [Compound 139]
22.7 nM	[4‑Aminomethyl‑phenylacetyl][Q(pyrrolidin)″]EWQ[Dab][AEF][2Nal][αMeL]E[Dab]-NH2 (lactam N-10, 3-6; SMILES CC(C)C[C@]1(C)NC(=O)[C@H](Cc2ccc3ccccc3c2)NC(=O)[C@H](Cc2ccc(OCCN)cc2)NC(=O)[C@@H]2CCNC(=O)CC[C@H](NC(=O)[C@H](CCC(=O)N3CCCC3)NC(=O)Cc3ccc(cc3)CNC(=O)CC[C@@H](C(=O)N[C@@H](CCN)C(N)=O)NC1=O)C(=O)N[C@@H](Cc1c[nH]c3ccccc13)C(=O)N[C@@H](CCC(N)=O)C(=O)N2) [Compound 145]
